Experimental findings from US20250269003A1, “NANO-ENHANCED VACCINE” (University of Virginia Patent Foundation, priority 2022, published 2025) are described below.

Data set [1] can be described thus: Ideal pH range for peptide stability and dissolution. Conditions: pH range required for stability and dissolution of the peptide. The class given is physicochemical. An excerpt:
(§1) Encapsulation of Melanoma Peptides within Nanoliposomes. The six melanoma peptides that induce melanoma-reactive CD4^+ T cells in patients as well as their protein epitope and ideal pH range for solubility are provided in Table 1. A neutral formulation was initially chosen to encapsulate all peptides and then, through an iterative process, modified formulations to optimize encapsulation efficiencies for several of the peptides. Through this process, three different nanoliposome formulations (neutral, cationic, and anionic) suitable for distinct peptides were identified. However, all of the presently disclosed formulations contained the same base lipid components, including 1,2-distearoyl-sn-glycero-3-phosphocholine (DSPC); 1,2-Dioleoyl-sn-glycero-3-phosphoethanolamine (DOPE); 1,2-distearoyl-sn-glycero-3-phosphoethanolamine-N-[methoxy(polyethylene glycol)-2000] (ammonium salt) (PEG2000PE); KDO2; cholesterol; and a fluorophore (either rhodamine or 1,1′-Dioctadecyl-3,3,3′,3′-Tetramethylindodicarbocyanine, 4-Chlorobenzenesulfonate Salt (DiD)). Each formulation contained DSPC and DOPE at a 2.14:1 molar ratio to form a stable, spherical nanoparticle. In addition, cholesterol at a 30 molar percent was incorporated to increase rigidity and to reduce leakiness. PEG(2000)-PE at 2.5 molar percent was incorporated for biological stability, KDO2 was added to all formulations at 0.1 molar percent, and a fluorescent probe (rhodamine or DiD) was added at 0.2 molar percent for subsequent biodistribution imaging studies. Keeping the molar ratios of these key components constant, dihexadecyl phosphate (DHP) was incorporated at 10 molar percent for the anionic formulation and positively charged lipid 1,2-dioleoyl-3-trimethylammonium-propane (chloride salt) (DOTAP) at 7 molar percent for the cationic formulation. The lipid mixtures were then dried down in a nitrogen blower for roughly 2 hours until all of the chloroform was evaporated. Then, the peptide solutions, (or 1×PBS for the “ghost” formulation), was added to the dried down lipids, the tubes were then vortexed and placed in a heat shaker at 60° C. for 2 hours, followed by sonication in a 60° C. sonic bath for roughly five minutes. After sonication, the liposomes were extruded through a 100-nanometer pore membrane eleven times to create uniformly sized liposomes. The extruded liposomes were subsequently run through a Sepharose gel bead column to separate the liposomal drugs from the free drug. The solution was analyzed using Dynamic Light Scattering (DLS; polydispersity and average hydrodynamic diameter of particles in solution), and mass spectrometry.
(§2) To further ensure optimal encapsulation efficiency of the MHPs, distinct dissolution buffers tailored to each peptide's optimal pH range and previously optimized for in vivo injection of the free peptides into patients enrolled in earlier clinical studies were utilized. Specifically, for the neutral peptide formulations, 1.33 mg/ml sodium bicarbonate (NaHCO3) in a 1:2 solution of lactated Ringers solution (LR) and water respectively (B1); for the cationic formulation, 5 mg/ml NaHCO3 in water (B2); for the WNR anionic formulation, 1 mg/ml NaHCO3 in water (B3); and for the TSYVKVLHHMVKISG (TSY; SEQ ID NO: 1) anionic formulation, 1:9 ratio of 2-(N-morpholino) […] (MES) buffer and water (B4).

Data set [2] is described as follows: Peptide encapsulation within nanoliposomes (mass spectrometry). The class given is physicochemical. Conditions: for Original mass encapsulation: neutral formulation and 1X PBS; for Optimized mass encapsulation: new liposome formulation (charge and buffer B1-B4) keeping optimal pH, full vaccine, n = 3 separate experiments in triplicate; for Encap. Efficiency: optimized formulation, based upon initial 500 μg/ml peptide concentration; for Encap. improvement: optimized versus original mass encapsulation.
Text: as §1, §2
Each of the six Melanoma Helper Peptides (6MHP) were initially incorporated in a neutral liposome formulation containing: (DSPC); (DOPE); (PEG2000PE); KDO2; cholesterol; and a fluorophore in ratios of 4.60:2.14:0.25:0.01:3.00:0.02 respectively (see Table 2). After quantifying initial encapsulation masses, an iterative approach was utilized to improve encapsulation via modifying the charge and lipid ratios of the liposomal formulation as well as the buffer for the peptide. The proportional improvements in encapsulation as well as the encapsulation efficiencies are depicted in Table 3.

The subject of data set [3] is SIN lymphocytes. Kind of data set: Lymphocyte viability, live-dead marker and flow cytometry. The class given is cell-based, human. Conditions: patient SIN samples; free TSY compared with nanoliposomal KDO2/TSY. An excerpt: (§3) Ex Vivo Lymphocyte Stimulation using Immunogenic TSY encapsulated nanoliposomes. Freshly obtained (cryopreserved) peripheral blood mononuclear cells (PBMC) and lymphocytes from the sentinel immunized nodes (SIN) of two patient donors (under IRB protocols, clinical trial Mel41 (NCT00089219; IRB #10464; Slingluff et al., 2008b) were utilized to assess CD4^+ T cell proliferation after treatment with the anionic TSY (MAGE-3281-295 peptide; Table 1) MIP-KDO2 nanoliposome. Firstly, a cell viability study was performed using a live-dead marker and flow cytometry to ensure that cell viability was not impacted by the presence of either the peptides or the liposomes. In this study, SIN lymphocytes from the two patient donors (SIN1 and SIN2) were treated with a variety of free peptides and liposome combinations. […] Cells were acquired on a FACSCANTO™ II flow cytometer (BD Biosciences) maintained by the Carter Immunology Center at the University of Virginia and the data analyzed using FlowJo software (version 10; BD Biosciences).
(§4) Using blood samples from melanoma patients who had previously been vaccinated with a 6MHP vaccine on the Mel41 trial and had developed a robust CD4^+ T cell immune response to the TSY antigen (Slingluff et al., 2008b), lymphocyte viability and CD4^+ T cell proliferation to the TSY nano-formulations ex vivo were analyzed. […]

For data set [4], the system named is CD4^+ T cells from sentinel immunized nodes (SIN1, SIN2). In words: CFSE dye-dilution CD4+ T cell proliferation assay, sentinel immunized node cells. The conditions noted are these: SIN1 and SIN2 donor cells, 2 μg/mL peptide, 5 days. The class given is cell-based, human.
Text: as §3, §4

For “LLKYRAREPVTKAE (listed as Homo sapiens) [melanoma helper peptide, amino acids 121-134 of human MAGE-1,2,3,6]”, the “Ideal pH range” value in data set [1] was 6.0-8.0. Moreover, in data set [2], the Original mass encapsulation turned out to be 34.56 ± 0.69 µg/mL, the Optimized mass encapsulation was determined as 57.26 ± 14.39 µg/mL, the “Encap. Efficiency” value was found to be 11.45% and the Encap. improvement was found to be 1.66X.
Take WNRQLYPEWTEAQRLD: the “Ideal pH range” value in data set [1] is given as 7.0-8.0. In data set [2], the Original mass encapsulation was 4.81 ± 0.09 µg/mL, the Optimized mass encapsulation came to 7.64 ± 0.99 µg/mL, the “Encap. Efficiency” value was determined as 1.53% and the Encap. improvement turned out to be 1.59X.
With “RNGYRALMDKSLHVGTQCALTRR (listed as Homo sapiens) [melanoma helper peptide, amino acids 51-73 of human Melan-A/MART-1]”, in data set [1], the “Ideal pH range” value is on record as 6.0-8.0. In data set [2], the Original mass encapsulation is 22.37 ± 0.30 µg/mL, the Optimized mass encapsulation worked out at 19.18 ± 6.36 µg/mL, the “Encap. Efficiency” value came to 3.29% and the Encap. improvement stood at 0.85X.
“TSYVKVLHHMVKISG (listed as Homo sapiens) [melanoma helper peptide, amino acids 281-295 of human MAGE-3]”: the “Ideal pH range” value in data set [1] is reported as 5.0-5.5. Also, in data set [2], the Original mass encapsulation is 0.17 ± 0.001 µg/mL, the Optimized mass encapsulation is 141.35 ± 2.18 µg/mL, the “Encap. Efficiency” value is 28.27% and the Encap. improvement was determined as 831X. The cell viability entry in data set [3] was “no discernable differences in cell viability”. Besides, the “CD4^+ T cell proliferation (CFSE dilution)” value in data set [4] is listed as “expected CD4^+ T cell proliferation response was observed”.
Regarding “AQNILLSNAPLGPQFP (listed as Homo sapiens) [melanoma helper peptide, amino acids 56-70 of human tyrosinase]”, the “Ideal pH range” value in data set [1] was 8.5-9.0. For the same sequence, in data set [2], the Original mass encapsulation came to 0.02 ± 0.005 µg/mL, the Optimized mass encapsulation turned out to be 6.25 ± 1.13 µg/mL, the “Encap. Efficiency” value was 1.25% and the Encap. improvement turned out to be 312X.
In the case of “FLLHHAFVDSIFEQWLQRHRP (listed as Homo sapiens) [melanoma helper peptide, amino acids 386-406 of human tyrosinase]”, the “Ideal pH range” value in data set [1] is reported as 6.0-8.0. In addition, in data set [2], the Original mass encapsulation turned out to be 28.15 ± 2.05 µg/mL, the Optimized mass encapsulation came out at 58.61 ± 4.96 µg/mL, the “Encap. Efficiency” value was 11.72% and the Encap. improvement came out at 2.08X.
